For 23 molecules, peptide exchange yield results are on record in patent US20170189511A1.

This assay has as its target HLA-A*24 (peptide-receptive MHC class I monomer of the UV-ligand exchange assay) (human). The assay can be described thus: UV-ligand exchange with anti-b2m ELISA.

The molecule NYYEVHKELF [Peptide SEQ ID NO: 270 (…)] came in with a peptide exchange yield of 50 to 75%.
The value for LYIDRPLPYL [Peptide SEQ ID NO: 196 (…)] was 50 to 75%; that for TYKDEGNDYF [Peptide SEQ ID NO: 209 (…)] was 50 to 75%; that for YYGPSLFLL [Peptide SEQ ID NO: 200 (…)] was 50 to 75%.
For EYSLFPGQVVI [Peptide SEQ ID NO: 197 (…)] the value was 50 to 75%; for PYRLIFEKF [Peptide SEQ ID NO: 281 (…)], 20 to 49%; for HYPPVQVLF [Peptide SEQ ID NO: 285 (…)], 50 to 75%.
LYITEPKTI [Peptide SEQ ID NO: 287 (…)]: the peptide exchange yield lay within 50 to 75%.
The value for TFSVSSHLF [Peptide SEQ ID NO: 222 (…)] was 50 to 75%; that for TYELRYFQI [Peptide SEQ ID NO: 204 (…)] was over 75%; that for VYQGHTALL [Peptide SEQ ID NO: 277 (…)] was over 75%.
The value for YYKSTSSAF [Peptide SEQ ID NO: 218 (…)] was 50 to 75%; that for YFIDSTNLKTHF [Peptide SEQ ID NO: 269 (…)] was 50 to 75%.
For VYVGGGQIIHL [Peptide SEQ ID NO: 174 (…)] the value was 50 to 75%.
The molecule AYVVFVSTL [Peptide SEQ ID NO: 207 (…)] showed a peptide exchange yield of 20 to 49%.
The value for EYNQWFTKL [Peptide SEQ ID NO: 176 (…)] was 50 to 75%; that for TYSVSFPMF [Peptide SEQ ID NO: 195 (…)] was over 75%.
For YYEVHKELF [Peptide SEQ ID NO: 175 (…)] the value was over 75%.
The value for IYATEAHVF [Peptide SEQ ID NO: 201 (…)] was 50 to 75%; that for QYLGQIQHI [Peptide SEQ ID NO: 268 (…)] was 50 to 75%.
The molecule RYAEEVGIF [Peptide SEQ ID NO: 199 (…)] came in with a peptide exchange yield of 50 to 75%.
IYSWILDHF [Peptide SEQ ID NO: 173 (…)] came in with a peptide exchange yield of over 75%.
The value for VYWDSAGAAHF [Peptide SEQ ID NO: 202 (…)] was over 75%.
